Data: paper PMC3394778, “Ubiquitylation of Terminal Deoxynucleotidyltransferase Inhibits Its Activity” (PLoS ONE, 2012)

B1: GST-TdT (terminal deoxynucleotidyltransferase) (natural protein)
chain: MDPLCTASSGPRKKRPRQVGASMASPPHDIKFQNLVLFILEKKMGTTRRNFLMELARRKGFRVENELSDSVTHIVAENNSGSEVLEWLQVQNIRASSQLELLDVSWLIESMGAGKPVEITGKHQLVVRTDYSATPNPGFQKTPPLAVKKISQYACQRKTTLNNYNHIFTDAFEILAENSEFKENEVSYVTFMRAASVLKSLPFTIISMKDTEGIPCLGDKVKCIIEEIIEDGESSEVKAVLNDERYQSFKLFTSVFGVGLKTSEKWFRMGFRSLSKIMSDKTLKFTKMQKAGFLYYEDLVSCVTRAEAEAVGVLVKEAVWAFLPDAFVTMTGGFRRGKKIGHDVDFLITSPGSAEDEEQLLPKVINLWEKKGLLLYYDLVESTFEKFKLPSRQVDTLDHFQKCFLILKLHHQRVDSSKSNQQEGKTWKAIRVDLVMCPYENRAFALLGWTGSRQFERDIRRYATHERKMMLDNHALYDKTKRVFLKAESEEEIFAHLGLDYIEPWERNA
notes: Terminal deoxynucleotidyltransferase (TdT), bovine; cDNA isolated from a bovine thymus cDNA library; wild type; source: E. coli BL21(DE3)pLysS Rosetta2, purified (Glutathione Sepharose 4B)

Assays:
Details in all cases: both partners purified
His-TdT del 2 (150–509) = biological target: T1, His-TdT del 2 (150–509) (bovine, UniProt P06526 150-509); experiment: pull-down; GST-UbcH5a coupled to Glutathione Sepharose 4B as bait, His-TdT deletion mutants as prey; binding buffer A: 50 mM Tris-HCl pH 7.4, 150 mM NaCl, 2.5 mM MgCl2, 1% TritonX-100, 10% glycerol, 1 mM DTT; immunoblot with anti-His
T1 construct: also called C-terminal region of TdT; source: E. coli BL21(DE3)pLysS Rosetta2, purified (Ni Sepharose 6 Fast Flow)

GST-TdT (terminal …) = biological target: B1; experiment: pull-down; GST-TdT coupled to Glutathione Sepharose 4B as bait, His-tagged proteins added for 1 h (coupling at 4°C); binding buffer A: 50 mM Tris-HCl pH 7.4, 150 mM NaCl, 2.5 mM MgCl2, 1% TritonX-100, 10% glycerol, 1 mM DTT; immunoblot with anti-His; Figure 2A with or without His-Ub
His-UbcH5b = biological target: T2, His-UbcH5b (human, UniProt P62837 1-147); experiment: as above
T2 construct: UbcH5b (E2), human; cDNA amplified from a human thymus cDNA library; also called UbcH5 isoforms; source: E. coli BL21(DE3), purified (Ni Sepharose 6 Fast Flow)

| binding result (GST-TdT (terminal …)) | Binder | further results |
| --- | --- | --- |
|  | GST-UbcH5a (enzyme, UbcH5a (ubiquitin-conjugating enzyme E2), human; cDNA amplified from a human thymus cDNA library; also called GST-Ubc5a; source: E. coli BL21(DE3), purified (Glutathione Sepharose 4B)) not shown | binding result (His-TdT del 2 (150–509)): binds |
| binds | His-UbcH5a (wild type) (enzyme, UbcH5a (ubiquitin-conjugating enzyme E2), human; cDNA amplified from a human thymus cDNA library; also called His-wtUbcH5a; wtUbcH5a; source: E. coli BL21(DE3), purified (Ni Sepharose 6 Fast Flow)) not shown |  |
| binds | Ubc13/MMS2 (His-UbcH13 with His-MMS2) (complex, UbcH13 (Ubc13, E2), human; cDNA amplified from a human thymus cDNA library; MMS2, E2 variant that lacks the active cysteine, human; The two chains were expressed and purified separately; also called UbcH13-MMS2; source: E. coli BL21(DE3), each purified (Ni Sepharose 6 Fast Flow)) chain 1: MAGLPRRIIKETQRLLAEPVPGIKAEPDESNARYFHVVIAGPQDSPFEGGTFKLELFLPEEYPMAAPKVRFMTKIYHPNVDKLGRICLDILKDKWSPALQIRTVLLSIQALLSAPNPDDPLANDVAEQWKTNEAQAIETARAWTRLYAMNNI chain 2: not shown |  |
|  | B1 | binding result (His-UbcH5b): binds |
| binds | His-UbcH10 (enzyme, human, UniProt O00762 1-179, looked up, UbcH10 (E2), human; cDNA amplified from a human thymus cDNA library; source: E. coli BL21(DE3), purified (Ni Sepharose 6 Fast Flow)) MASQNRDPAATSVAAARKGAEPSGGAARGPVGKRLQQELMTLMMSGDKGISAFPESDNLFKWVGTIHGAAGTVYEDLRYKLSLEFPSGYPYNAPTVKFLTPCYHPNVDTQGNICLDILKEKWSALYDVRTILLSIQSLLGEPNIDSPLNTHAAELWKNPTAFKKYLQETYSKQVTSQEP |  |
| binds | His-UbcH6 (enzyme, human, UniProt P51965 1-193, looked up, UbcH6 (E2), human; cDNA amplified from a human thymus cDNA library; source: E. coli BL21(DE3), purified (Ni Sepharose 6 Fast Flow)) MSDDDSRASTSSSSSSSSNQQTEKETNTPKKKESKVSMSKNSKLLSTSAKRIQKELADITLDPPPNCSAGPKGDNIYEWRSTILGPPGSVYEGGVFFLDITFTPEYPFKPPKVTFRTRIYHCNINSQGVICLDILKDNWSPALTISKVLLSICSLLTDCNPADPLVGSIATQYMTNRAEHDRMARQWTKRYAT |  |
